Results reported in US20240400654A1.
Values joined by “and” are separate entries in the source; they are usually repeats but may differ in a detail not shown here. Equal values may be shown once.

Target: HRgpA-6H (Porphyromonas gingivalis) (UniProt P28784)
Assay: ELISA, coated HRgpA-6H

UniProt P28784, sequence (P28784 228-860 limits assumed): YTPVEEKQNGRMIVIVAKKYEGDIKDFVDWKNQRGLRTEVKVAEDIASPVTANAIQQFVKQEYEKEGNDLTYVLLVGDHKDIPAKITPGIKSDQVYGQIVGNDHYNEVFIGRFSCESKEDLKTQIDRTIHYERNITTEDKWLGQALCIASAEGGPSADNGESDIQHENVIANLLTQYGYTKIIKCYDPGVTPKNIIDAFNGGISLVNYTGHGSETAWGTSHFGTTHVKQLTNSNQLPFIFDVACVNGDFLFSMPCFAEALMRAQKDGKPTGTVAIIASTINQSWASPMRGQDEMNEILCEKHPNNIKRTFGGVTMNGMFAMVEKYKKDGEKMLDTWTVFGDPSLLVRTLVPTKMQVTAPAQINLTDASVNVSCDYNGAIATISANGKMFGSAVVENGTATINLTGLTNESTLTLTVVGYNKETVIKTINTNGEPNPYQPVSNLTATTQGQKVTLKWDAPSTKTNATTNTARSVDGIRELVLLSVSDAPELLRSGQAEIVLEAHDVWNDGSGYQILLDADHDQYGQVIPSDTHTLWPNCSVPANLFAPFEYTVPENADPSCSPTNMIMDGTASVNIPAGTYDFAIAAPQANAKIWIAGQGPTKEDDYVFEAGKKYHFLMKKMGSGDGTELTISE

Binder	OD450 nm	Ratio OD(Variant)/OD(WT)
KB001 mouse Fab VL L55H (Fab, V domains shown) VH: EVQLKQSGPGLVAPSQSLSITCTVSGFSLSIYSVHWVRQPPGKGLEWLGMIWGGGSSDYNSALKSRLSISKDNSKSQVFLKMNSLQTDDTAMYYCARNGNFYAMDYWGQGTSVTVSS VL: QIVLTQSPAIMSASLGERVTMTCTASSSVSSSFLHWYQQKPGSSPQLWIYSTSNHASGVPARFSGSGSGTSYSLTISSMEAEDAATYYCHQYHHSPYIYTFGGGTKLEIK	0.695 and 0.731	0.887 and 0.933
KB001 mouse Fab VH Y59V (Fab, V domains shown) VH: EVQLKQSGPGLVAPSQSLSITCTVSGFSLSIYSVHWVRQPPGKGLEWLGMIWGGGSSDVNSALKSRLSISKDNSKSQVFLKMNSLQTDDTAMYYCARNGNFYAMDYWGQGTSVTVSS VL: QIVLTQSPAIMSASLGERVTMTCTASSSVSSSFLHWYQQKPGSSPQLWIYSTSNLASGVPARFSGSGSGTSYSLTISSMEAEDAATYYCHQYHHSPYIYTFGGGTKLEIK	0.83 and 0.79	1.05 and 0.999
KB001 mouse Fab VH S30G (Fab, V domains shown) VH: EVQLKQSGPGLVAPSQSLSITCTVSGFSLGIYSVHWVRQPPGKGLEWLGMIWGGGSSDYNSALKSRLSISKDNSKSQVFLKMNSLQTDDTAMYYCARNGNFYAMDYWGQGTSVTVSS VL: QIVLTQSPAIMSASLGERVTMTCTASSSVSSSFLHWYQQKPGSSPQLWIYSTSNLASGVPARFSGSGSGTSYSLTISSMEAEDAATYYCHQYHHSPYIYTFGGGTKLEIK	0.533 and 0.515	1.06 and 1.02
KB001 mouse Fab VH I31V (Fab, V domains shown) VH: EVQLKQSGPGLVAPSQSLSITCTVSGFSLSVYSVHWVRQPPGKGLEWLGMIWGGGSSDYNSALKSRLSISKDNSKSQVFLKMNSLQTDDTAMYYCARNGNFYAMDYWGQGTSVTVSS VL: QIVLTQSPAIMSASLGERVTMTCTASSSVSSSFLHWYQQKPGSSPQLWIYSTSNLASGVPARFSGSGSGTSYSLTISSMEAEDAATYYCHQYHHSPYIYTFGGGTKLEIK	0.537 and 0.521	1.06 and 1.03
KB001 mouse Fab VH S61Q (Fab, V domains shown) VH: EVQLKQSGPGLVAPSQSLSITCTVSGFSLSIYSVHWVRQPPGKGLEWLGMIWGGGSSDYNQALKSRLSISKDNSKSQVFLKMNSLQTDDTAMYYCARNGNFYAMDYWGQGTSVTVSS VL: QIVLTQSPAIMSASLGERVTMTCTASSSVSSSFLHWYQQKPGSSPQLWIYSTSNLASGVPARFSGSGSGTSYSLTISSMEAEDAATYYCHQYHHSPYIYTFGGGTKLEIK	0.634	1.28
KB001 mouse Fab VH I31M (Fab, V domains shown) VH: EVQLKQSGPGLVAPSQSLSITCTVSGFSLSMYSVHWVRQPPGKGLEWLGMIWGGGSSDYNSALKSRLSISKDNSKSQVFLKMNSLQTDDTAMYYCARNGNFYAMDYWGQGTSVTVSS VL: QIVLTQSPAIMSASLGERVTMTCTASSSVSSSFLHWYQQKPGSSPQLWIYSTSNLASGVPARFSGSGSGTSYSLTISSMEAEDAATYYCHQYHHSPYIYTFGGGTKLEIK	0.522	1.03
KB001 mouse Fab VH S61D (Fab, V domains shown) VH: EVQLKQSGPGLVAPSQSLSITCTVSGFSLSIYSVHWVRQPPGKGLEWLGMIWGGGSSDYNDALKSRLSISKDNSKSQVFLKMNSLQTDDTAMYYCARNGNFYAMDYWGQGTSVTVSS VL: QIVLTQSPAIMSASLGERVTMTCTASSSVSSSFLHWYQQKPGSSPQLWIYSTSNLASGVPARFSGSGSGTSYSLTISSMEAEDAATYYCHQYHHSPYIYTFGGGTKLEIK	–	1.14 and 1.11 (2×) and 0.956
KB001 mouse Fab VH V34I (Fab, V domains shown) VH: EVQLKQSGPGLVAPSQSLSITCTVSGFSLSIYSIHWVRQPPGKGLEWLGMIWGGGSSDYNSALKSRLSISKDNSKSQVFLKMNSLQTDDTAMYYCARNGNFYAMDYWGQGTSVTVSS VL: QIVLTQSPAIMSASLGERVTMTCTASSSVSSSFLHWYQQKPGSSPQLWIYSTSNLASGVPARFSGSGSGTSYSLTISSMEAEDAATYYCHQYHHSPYIYTFGGGTKLEIK	0.891 and 0.868 and 0.866	1.08 and 1.05 (2×)
KB001 mouse Fab VH S57Q (Fab, V domains shown) VH: EVQLKQSGPGLVAPSQSLSITCTVSGFSLSIYSVHWVRQPPGKGLEWLGMIWGGGSQDYNSALKSRLSISKDNSKSQVFLKMNSLQTDDTAMYYCARNGNFYAMDYWGQGTSVTVSS VL: QIVLTQSPAIMSASLGERVTMTCTASSSVSSSFLHWYQQKPGSSPQLWIYSTSNLASGVPARFSGSGSGTSYSLTISSMEAEDAATYYCHQYHHSPYIYTFGGGTKLEIK	0.915 and 0.863 and 0.836	1.04 and 0.981 and 0.951
KB001 mouse Fab VH S30A (Fab, V domains shown) VH: EVQLKQSGPGLVAPSQSLSITCTVSGFSLAIYSVHWVRQPPGKGLEWLGMIWGGGSSDYNSALKSRLSISKDNSKSQVFLKMNSLQTDDTAMYYCARNGNFYAMDYWGQGTSVTVSS VL: QIVLTQSPAIMSASLGERVTMTCTASSSVSSSFLHWYQQKPGSSPQLWIYSTSNLASGVPARFSGSGSGTSYSLTISSMEAEDAATYYCHQYHHSPYIYTFGGGTKLEIK	0.534 and 0.499 and 0.494	1.06 and 0.989 and 0.979
KB001 mouse Fab VL L55V (Fab, V domains shown) VH: EVQLKQSGPGLVAPSQSLSITCTVSGFSLSIYSVHWVRQPPGKGLEWLGMIWGGGSSDYNSALKSRLSISKDNSKSQVFLKMNSLQTDDTAMYYCARNGNFYAMDYWGQGTSVTVSS VL: QIVLTQSPAIMSASLGERVTMTCTASSSVSSSFLHWYQQKPGSSPQLWIYSTSNVASGVPARFSGSGSGTSYSLTISSMEAEDAATYYCHQYHHSPYIYTFGGGTKLEIK	0.706	0.901
KB001 mouse Fab VH S30Y (Fab, V domains shown) VH: EVQLKQSGPGLVAPSQSLSITCTVSGFSLYIYSVHWVRQPPGKGLEWLGMIWGGGSSDYNSALKSRLSISKDNSKSQVFLKMNSLQTDDTAMYYCARNGNFYAMDYWGQGTSVTVSS VL: QIVLTQSPAIMSASLGERVTMTCTASSSVSSSFLHWYQQKPGSSPQLWIYSTSNLASGVPARFSGSGSGTSYSLTISSMEAEDAATYYCHQYHHSPYIYTFGGGTKLEIK	0.53 and 0.488	1.05 and 0.967
KB001 mouse Fab VH S56A (Fab, V domains shown) VH: EVQLKQSGPGLVAPSQSLSITCTVSGFSLSIYSVHWVRQPPGKGLEWLGMIWGGGASDYNSALKSRLSISKDNSKSQVFLKMNSLQTDDTAMYYCARNGNFYAMDYWGQGTSVTVSS VL: QIVLTQSPAIMSASLGERVTMTCTASSSVSSSFLHWYQQKPGSSPQLWIYSTSNLASGVPARFSGSGSGTSYSLTISSMEAEDAATYYCHQYHHSPYIYTFGGGTKLEIK	0.891 and 0.86 and 0.82	1.01 and 0.978 and 0.932
KB001 mouse Fab VH I31T (Fab, V domains shown) VH: EVQLKQSGPGLVAPSQSLSITCTVSGFSLSTYSVHWVRQPPGKGLEWLGMIWGGGSSDYNSALKSRLSISKDNSKSQVFLKMNSLQTDDTAMYYCARNGNFYAMDYWGQGTSVTVSS VL: QIVLTQSPAIMSASLGERVTMTCTASSSVSSSFLHWYQQKPGSSPQLWIYSTSNLASGVPARFSGSGSGTSYSLTISSMEAEDAATYYCHQYHHSPYIYTFGGGTKLEIK	0.56 and 0.534	1.11 and 1.06
KB001 mouse Fab VH S30E (Fab, V domains shown) VH: EVQLKQSGPGLVAPSQSLSITCTVSGFSLEIYSVHWVRQPPGKGLEWLGMIWGGGSSDYNSALKSRLSISKDNSKSQVFLKMNSLQTDDTAMYYCARNGNFYAMDYWGQGTSVTVSS VL: QIVLTQSPAIMSASLGERVTMTCTASSSVSSSFLHWYQQKPGSSPQLWIYSTSNLASGVPARFSGSGSGTSYSLTISSMEAEDAATYYCHQYHHSPYIYTFGGGTKLEIK	0.567	1.12
KB001 mouse Fab VH S57A (Fab, V domains shown) VH: EVQLKQSGPGLVAPSQSLSITCTVSGFSLSIYSVHWVRQPPGKGLEWLGMIWGGGSADYNSALKSRLSISKDNSKSQVFLKMNSLQTDDTAMYYCARNGNFYAMDYWGQGTSVTVSS VL: QIVLTQSPAIMSASLGERVTMTCTASSSVSSSFLHWYQQKPGSSPQLWIYSTSNLASGVPARFSGSGSGTSYSLTISSMEAEDAATYYCHQYHHSPYIYTFGGGTKLEIK	0.922	1.05
KB001 mouse Fab VH S30N (Fab, V domains shown) VH: EVQLKQSGPGLVAPSQSLSITCTVSGFSLNIYSVHWVRQPPGKGLEWLGMIWGGGSSDYNSALKSRLSISKDNSKSQVFLKMNSLQTDDTAMYYCARNGNFYAMDYWGQGTSVTVSS VL: QIVLTQSPAIMSASLGERVTMTCTASSSVSSSFLHWYQQKPGSSPQLWIYSTSNLASGVPARFSGSGSGTSYSLTISSMEAEDAATYYCHQYHHSPYIYTFGGGTKLEIK	0.565 and 0.56	1.12 and 1.11
KB001 mouse Fab VH S57V (Fab, V domains shown) VH: EVQLKQSGPGLVAPSQSLSITCTVSGFSLSIYSVHWVRQPPGKGLEWLGMIWGGGSVDYNSALKSRLSISKDNSKSQVFLKMNSLQTDDTAMYYCARNGNFYAMDYWGQGTSVTVSS VL: QIVLTQSPAIMSASLGERVTMTCTASSSVSSSFLHWYQQKPGSSPQLWIYSTSNLASGVPARFSGSGSGTSYSLTISSMEAEDAATYYCHQYHHSPYIYTFGGGTKLEIK	0.911 and 0.869	1.04 and 0.988
KB001 mouse Fab VH S28E (Fab, V domains shown) VH: EVQLKQSGPGLVAPSQSLSITCTVSGFELSIYSVHWVRQPPGKGLEWLGMIWGGGSSDYNSALKSRLSISKDNSKSQVFLKMNSLQTDDTAMYYCARNGNFYAMDYWGQGTSVTVSS VL: QIVLTQSPAIMSASLGERVTMTCTASSSVSSSFLHWYQQKPGSSPQLWIYSTSNLASGVPARFSGSGSGTSYSLTISSMEAEDAATYYCHQYHHSPYIYTFGGGTKLEIK	0.561 and 0.551 and 0.494	1.04 and 1.02 and 0.915
KB001 mouse Fab VL L55K (Fab, V domains shown) VH: EVQLKQSGPGLVAPSQSLSITCTVSGFSLSIYSVHWVRQPPGKGLEWLGMIWGGGSSDYNSALKSRLSISKDNSKSQVFLKMNSLQTDDTAMYYCARNGNFYAMDYWGQGTSVTVSS VL: QIVLTQSPAIMSASLGERVTMTCTASSSVSSSFLHWYQQKPGSSPQLWIYSTSNKASGVPARFSGSGSGTSYSLTISSMEAEDAATYYCHQYHHSPYIYTFGGGTKLEIK	0.769	0.981
KB001 mouse Fab VH S28P (Fab, V domains shown) VH: EVQLKQSGPGLVAPSQSLSITCTVSGFPLSIYSVHWVRQPPGKGLEWLGMIWGGGSSDYNSALKSRLSISKDNSKSQVFLKMNSLQTDDTAMYYCARNGNFYAMDYWGQGTSVTVSS VL: QIVLTQSPAIMSASLGERVTMTCTASSSVSSSFLHWYQQKPGSSPQLWIYSTSNLASGVPARFSGSGSGTSYSLTISSMEAEDAATYYCHQYHHSPYIYTFGGGTKLEIK	0.545 and 0.452 and 0.514	1.01 and 0.837 and 0.952
